Laboratory results: doi:10.1101/2025.09.05.674523 (bioRxiv, 2025)
Values belong to the molecule of their own block, whether it stands above or below them.

Assays:
Assay in all cases: AlphaScreen or HTRF
[1] = target: full-length recombinant mouse EPPIN (mEPPIN; L24-T134) (mouse) (UniProt Q9DA01)
mEPPIN^L24-K68 (mouse) = mEPPIN^L24-K68 (mouse) (UniProt Q9DA01)
[2] = target: full-length recombinant mouse SEMG1 (mSEMG1; Q32-G375) (mouse)
[3] = target: T1, full-length recombinant mouse EPPIN (mEPPIN; L24-T134) (mouse, UniProt Q9DA01 24-134)
T1 sequence (looked up): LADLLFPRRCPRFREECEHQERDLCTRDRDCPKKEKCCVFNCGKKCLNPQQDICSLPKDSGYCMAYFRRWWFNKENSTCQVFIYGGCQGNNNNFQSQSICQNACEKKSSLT

- EC50 [1]: 23.6 nM
- reduction in the specific signal compared to full-length EPPIN (mEPPIN^L24-K68 (mouse)): 75%
Molecule: full-length recombinant mouse SEMG1 (mSEMG1; Q32-G375) (natural protein)

- EC50 [2]: 1 nM
B1: full-length recombinant mouse EPPIN (mEPPIN; L24-T134) (natural protein)
chain: LADLLFPRRCPRFREECEHQERDLCTRDRDCPKKEKCCVFNCGKKCLNPQQDICSLPKDSGYCMAYFRRWWFNKENSTCQVFIYGGCQGNNNNFQSQSICQNACEKKSSLT

- EC50 [3]: 8.3 nM
B2: recombinant human SEMG1 (hSEMG1, G26-R281) (domain or fragment, UniProt P04279 26-281, looked up)
chain: GGSKGRLPSEFSQFPHGQKGQHYSGQKGKQQTESKGSFSIQYTYHVDANDHDQSRKSQQYDLNALHKTTKSQRHLGGSQQLLHNKQEGRDHDKSKGHFHRVVIHHKGGKAHRGTQNPSQDQGNSPSGKGISSQYSNTEERLWVHGLSKEQTSVSGAQKGRKQGGSQSSYVLQTEELVANKQQRETKNSHQNKGHYQNVVEVREEHSSKVQTSLCPAHQDKLQHGSKDIFSTQDELLVYNKNQHQTKNLNQDQQHGR
